Target: mutant forms of RUVBL1 and RUVBL2
Test: co-IP

- co-IP efficiency: < 0.1%
B1: RL-NOP58 (natural protein)
chain: MLVLFETSVGYAIFKVLNEKKLQEVDSLWKEFETPEKANKIVKLKHFEKFQDTAEALAAFTALMEGKINKQLKKVLKKIVKEAHEPLAVADAKLGGVIKEKLNLSCIHSPVVNELMRGIRSQMDGLIPGVEPREMAAMCLGLAHSLSRYRLKFSADKVDTMIVQAISLLDDLDKELNNYIMRCREWYGWHFPELGKIISDNLTYCKCLQKVGDRKNYASAKLSELLPEEVEAEVKAAAEISMGTEVSEEDICNILHLCTQVIEISEYRTQLYEYLQNRMMAIAPNVTVMVGELVGARLIAHAGSLLNLAKHAASTVQILGAEKALFRALKSRRDTPKYGLIYHASLVGQTSPKHKGKISRMLAAKTVLAIRYDAFGEDSSSAMGVENRAKLEARLRTLEDRGIRKISGTGKALAKTEKYEHKSEVKTYDPSGDSTLPTCSKKRKIEQVDKEDEITEKKAKKAKIKVKVEEEEEEKVAEEEETSVKKKKKRGKKKHIKEEPLSEEEPCTSTAIASPEKKKKKKKKRENED
